# Results from the domain aggregation screens of Martell et al. (2025).
# Test: soluble fraction after stress (log2 fold change); higher = more stays soluble; pooled small domains, quantitative proteomics
# Conditions: stress: pH 4
# Method in brief: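 Values are log2 fold changes, and higher ones mean more of the domain stayed soluble. Each fold change reflects the soluble amount of a domain after acid stress and is taken as a measure of aggregation propensity. The stress was pH 4, applied to pooled custom libraries of small protein domains analysed by high-throughput quantitative proteomics.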
row,Sequence,soluble fraction (log2)
1,HMAQSTALVNLAQAEINKRGLTQTEVQARLSEEGINVNSISPAEYPKYQKQILSILDQMQKEKQLSKEV,0.359
2,HMFDGNIKIVEDAFSVTIVARGTEVKISGDPENVYLASKTVEGLLTLIDKGEAITDQRVHYVIGLVREG,-1.71
3,HMEKFTGELSQEEKNVLDALSHEEMHVDIIIKLTKLETSAVSSTLSLLEIKGLIKNIGGQNYIK,-0.139
4,HMSDYLGSLSHEEKMIFNHFDEDSSTIENMAKKTELKPELISQIFLNLELRGFLRQTEGGLYEKI,-1.13
5,HMNKYNNIEDLKEEDFENISEKYQVPVSFVKSKLDDLINWHEKNPQKNHYKNYLSALRDWVKRDSLKIKL,0.0178
6,HMNYDPEEKITQIRTMLEIHSRIEFNEIITPATRRGEIIIIFLALLHMIKRGYIVVRQHRLFGDITIFARD,0.22
7,HMKQPVPDEIYFKRLANATEALGRYPRASERKKFGLNMSKRRYPTLTDFINKAIELGYVEDFR,0.22
8,HMIVAHEINRHLGESDQPVEIPDNRREGAVAELLKTFNNDDAFREMDDGKYEVALDGEKVREAARSLLA,-0.0196
9,HMSPKYLELVRWINTQIQEKKLTAGQKMYSENELKEMFGVSRQTVRHAISVLEGEGMIRRVRGSGTYINDN,-0.043
10,HMSEPIYTQLKEILTQKIVNGEFPPGARLPSEYELTELYHISRSTVRLALKELEASGMIVRRRGKGTFVSS,-0.0496
11,HMYQKERDKEISEIETFLKKITNANGTRAYSDESIADMSYVELLNLYEGITSKLTEEEIENI,-0.644
12,HMKYTEEIFNILSRGGFISANSVSSTVKRYYDALEEDFTEYYDYYKGIGFYLEAGNGYYLFTR,-0.064
13,HMDNEIIEEEKITTLMITHNMRDAIKYGNRLIMLNEGRVIFDISGEEKKNLTVQELLEKFEK,0.22
14,HMRGYGDRIRILRERAGITIEQLAERLGVAPYFIRRTELSEVYPTKPYIEALADVLNIDASYLARHI,-0.972
15,HMVDIIMDLLEAVAQARPADAFIKSLHIQYQERGGLSKKQLQGLYGKAAKTAGIPPGKLATLEAIILKRP,-0.0377
16,HMQVSDTNTLEQFAKEVIEANPKAVEDYHQNPLAIGFLVGQLMKVSKGSANPQTGKEILEKLL,-0.185
17,HMENPPISVVIPPSFRGQRIDKALGSLIGDYSRSKIQQWLQSGLVQSAGEPLLPKYTVLGNEQILIAVPS,0.03
18,HMEKTEQMQVILDYIARYGEINNEKVQEILGVKRTRAYTILKQMVENGFVTTNGRGEEKKYYSIR,-0.33
19,HMSTMTEQEAFGLWERINDFIARTGNEPNRNSNDAHEVRMAEALNFIRIKVAEQRNSQSNSEAQNN,-1.39
20,HMSEIKDRLREARRNKGLSQAGLSKLLGVSQASIAAIESGRNKRPTNLVSIAKALDVSPYWLETGK,0.0733
21,HMKELASKYEISEYMKFLIENLDKSNFFYPIEKRESMINNIFSIYSKADLSKKELNMLWGMLKKLR,-1.06
22,HMNDLDSLWDIWENLNERGIGDKSEEGQELRDAIREFIDTNELNVRVTRNKTNEDLLTDIEDALEVAKNS,-2.07
23,HMSLPNNLIEQLQDPEPKARRRAVRRLAATRDPSAIPLLRNVYLQDGDDRVRDAAEAALVQFRAMQHN,0.104
24,HMTKSSAYLSAEKLINKKQYSDAIVKLNDALVTDSKNADIYNYLGFSHRKLGKMEDAAFFYNKALE,-0.165
25,HMDDPTVILFDPKNGQRKIVKWKAGLTLYSARRSAGISSAAEATIQRAGKSLSGRTATALEPGDVIRW,0.203

row,Sequence,soluble fraction (log2)
1,HMDYNYLVFVTNTGPRSIAVEDLEMTVSDGKLVVSSGADGETFDLSTLTKMYFSDAAVVSINDV,-1.14
2,HMPLLSEWDAALEELWAKLGDVPMDPETERMDAPFLGFPAGTPREDIWHWFDERHSKGVAHLLYG,-1.78
3,HMSFDTFKKVFSNLVEKSGYSDAEIARRLGVNRSTISRWKSGEQSPPLPKVKEIANFFGVSPMVFVD,0.0603
4,HMRIPANIAEDIKKLQKKEHHLHHHLGRDPFDDELAKELEWDTEQVSEIRQMIKNPELLEELLEAEREEE,-1.2
5,HMVTDTGEIEAIIDRVISENPDSVSDFKNGKERALKFLMGQAMKESKGKANPQIVNELLLKKL,0.0343
6,HMVKLQATPSQRKTLDELYVQLKKLEPTAKEDLSLLRRLENSHLVSKQEAQGLISKAIGRVGALAVEQQP,0.0541
7,HMGGLAHPASGEEMEHLFAHLEGELLKSGFLFPPDKAAGMMRNIRAMLTRADFTDQEVRTLRGMIVALSRG,-0.794
8,HMGLQLTPVRRRVLEILLHEHRALGAYDILDKLRSEGLGSQPPVAYRALDFLVTHGFAHKIERLNAF,-0.0897
9,HMERLKKYLDDVRTFLPGTNPKKVDEILREIESHVLERAEREHGEVNDNAVAMSIKEYGSPEEVAARYYEG,-0.29
10,HMGGQFVKVEVIAQIFGVTVRRVQQLTQEGVVKTTEIPGEGRRYELVPTIKTYIQYLSDKAY,0.0375
11,HMIQTMVVTDLKNGTIFKENGHPFIVLKYEHIKVSRGSAQVRVKMKNLITGQVLEKSWQSTAHVDDT,0.186
12,HMVDDRPVTGTTLIREWQGRAYEVIVQAGHFEFQGQRYQSLSAIAKVITGTVWNGWAFFGLR,-0.444
13,HMETAESLLRRLIMLEDPAMQNAMYVLAVMLERGKQLVERAAKPHESGGILRVYEHKKSGDTFVVLDPR,-1.05
14,HMKKRDAEIMLQREFKLTEAIAMVRDRDIQELLPIALYFKVNINQPTAEIRYNLLNIAKSKTQEFIEAFD,-1.03
15,HMQENFYMILESEERRVLDVLVADQPESVATFLKLVSPFPNYKIILEHINEKALDFYEETVI,-0.666
16,HMAKPAALLFEHRFDGMAEMRFRENIVKNDDGSYTYDEYFLSMLDRAGLEKIVQENMEVWIAYAKQ,-1.42
17,HMTTKEEAAYQAIRSAIIDGELKPGQSVTIRDLASRFDLGRTPITDAMKHLALDGWLETTTGVGTRV,-0.15
18,HMFEKVKLTLTIPSKYSGSTYSALRNRMNKFSKEEWLSNGDLKIEIEVTGGQKTDIYTLINKLTNGEAIIE,-0.203
19,HMTSKVTVLAVNGRITVSGKEQDETVSVYDTGGRLLYQGESDVINVPRKAMYIVTVSRKSYKVIV,0.00912
20,HMTISPYTKDDFLKGTKPFEDVYAHKADPFVHDRALEQMTIWAKSVGVNGFKKLYKAYIDSLRIKNKEI,0.00637
21,HMGSVHDAATDRIREMILGGQFEPGERLRQDDLATSLGVSTMPVREALRQLQAEGLVVFYPRKGAVVAR,-0.173
22,HMETLKEVPNLKGQQQEVAKQLLINAGLGVGKINIIEDSTIADGEVVTQSILPNTKVKKDTYVGFTVNKAP,0.22
23,HMLAYQRTYEKILEDLRNDVYPVNSLLPPEPKLEEIYHVSRTTVRRAIAQLADEGYVKVKQGYGTVVLKN,0.22
24,HMTATDRQLQLIAYTAARLMAEQGIADFNAAKRKAIQTLGLPNNAKLPGNADVEAQLRAYQRIF,0.0539
25,HMLRMTRNRQKLVEVLMESGRPLSADEIREAAGFASTDLVTVYRNLEAFQSAGLLQRIPLENGSQLFELT,-0.269

row,Sequence,soluble fraction (log2)
1,HMKRLQEQAYDYLKELILSGKMIENEIYSETKLASEIGISRTPIRDALQRLSQDGFIDIIPSKGFRIH,-0.889
2,HMSKDKEKRTREHVLGILKKYDKVMTDKAFTVFKKMIKDESILEMELIKLINFIGERKEIRSKDVLAVVTE,-0.329
3,HMDENMQRYNTMEEIKKEFPYAEDTVRKLIAMGAIRGGGKVDANGDPADMDLSRDMLRMMVFNDRAGAYG,-0.761
4,HMFGEKEFYQWIGKTAGEKFSGLPAAVIKSLYKYWREYNLSEEDIMGFIRQTELLPKRTPLDVELFFEK,-1.36
5,HMVQPSAAVRAHPVGAFVEQRQGLSDDQILALQKKWNEGIYARIQGTRWFLFSKDTPAVTSLLLVPDLP,-0.0222
6,HMLDLSDFEVVRDLYLSEQIWNVGDLIIARSKKDDTYKAWEIIRKGTNYVTGIDESHKVEKIWLHDILI,-1.1
7,HMVPPELEFLQSLMKIEDISELTAAIENNRDAVTDDFKEMLETVIENISGAPDTDPKLLERLKTIRTVLA,-0.631
8,HMKFYKMIDESDEKIENPEIMIFQIIELVSSTTYSAIINKEPVDVETLKPYLYQTIRTIIINHQS,-0.582
9,HMKAEKEIEKIKFTIYNEFKRKQEENHFLPPWDGTKMLRQFVLGVVANNPKYQHVNTDILYRDLLLLYYQ,-0.166
10,HMGTAVKAPMPGTILKVNVTAGQSVKAGDIMFILEAMKMENEIVAPSDGTVSQVVAAKGSSVATDDVLAYL,-0.0993
11,HMYLHSEFSPVTGQELHMKYDDSSTEEDPVMLVEGKDIQGNDFVKKIHLNDVDPENATPAEMTALRVHL,-0.507
12,HMAQVDAVQQVLQAFPALRSGQSQHLSQVVAALRQRGILTVGTKTTAWFAQWASVFQLLPLQVPNRIRYQS,0.2
13,HMEDSSSILNRMRKLIALLNRASEAYYKENKEIISNFEYDRLYDELLGLESRSNTVLSGSPTYKV,-1.21
14,HMEDTFEYPVSVNGKLRFKIELPVSMEKDEIRNIVLNDERAKKWLATGTLTNLIVVPNRIINIVIK,0.0025
15,HMYTEIDDVKDLLSKIPSVNKLTTADRGMVQAARNAYDALDEDQKLYITIADVEKFNAAVEWMEEH,-0.523
16,HMNNKVAVKSGYYFELFDKDEIPATLEKMKQKVKIDNIKYDLYQGTSLEDERKIDTMFGEKMGYSIDDYI,-0.527
17,HMGSGKGAAHTILGISADASDDEIKAAWRKLVQENHPDKLVSQGLPDEFVQAATDRLRLINTAYQSMLNRP,-0.328
18,HMFPELNAEETQVVQLLQKQTEGMQVNSLVVESNIPITRMSGILFELELKGIIRNYAGGVYKL,-0.951
19,HMTMIIQLDKNITQEQRQFLVEELNRLSISPNFVSTQFTNYIVGIPKKEFDIRLIGNLPGIADIHFV,-0.269
20,HMSAPGYRAVYPGMLESERQTAYELLSSSGFDVKINTSSGELEVTTDRYHEARMVMASQNIPK,-1.18
21,HMSNEITVPDLSGMSLEELETILSDRSLSYEIIDSIYNSTAKKGTVSSQDPLPDAKVKSGRTIYITVVSKL,-1.31
22,HMQRSVNYSELHEIKERVFDALYSSPMSMPDLLAWLKGDEEHTISVIRLMQDNGDIEMGEDGRLAVV,-0.629
23,HMRLPAISYSFARKHGVVLRLDGDRPVASLREGADPAILIEVKRHLDGAMGVEKVSEAAFDQLLSTTYA,-0.436
24,HMQTTDTGAIETIVDELMAANPDKVEAYRGGKTGLQGFFMGQVMKQLGGQGNPKVISAIVTEKLE,0.257
25,HMRSVEVAAEPGMVLEDRQTGFVGAVVAVEKSGGTHLVVLEDRHGLRRGFPLGPGFWLEGRPVVLAPPP,-0.141
